Patent publication US20250340655A1, “EPHA2-TARGETING ANTIBODIES AND THEIR APPLICATIONS IN CANCER TREATMENT” (TAIPEI MEDICAL UNIVERSITY, priority 2022, published 2025)

What was measured:
[1] = target: T1, EphA1 overexpressed on 293T cells (UniProt P21709 26-976, limits assumed); assay: flow cytometry on 293T cells overexpressing EphA1-A8
T1 construct: whole, on cells
T1 sequence (looked up): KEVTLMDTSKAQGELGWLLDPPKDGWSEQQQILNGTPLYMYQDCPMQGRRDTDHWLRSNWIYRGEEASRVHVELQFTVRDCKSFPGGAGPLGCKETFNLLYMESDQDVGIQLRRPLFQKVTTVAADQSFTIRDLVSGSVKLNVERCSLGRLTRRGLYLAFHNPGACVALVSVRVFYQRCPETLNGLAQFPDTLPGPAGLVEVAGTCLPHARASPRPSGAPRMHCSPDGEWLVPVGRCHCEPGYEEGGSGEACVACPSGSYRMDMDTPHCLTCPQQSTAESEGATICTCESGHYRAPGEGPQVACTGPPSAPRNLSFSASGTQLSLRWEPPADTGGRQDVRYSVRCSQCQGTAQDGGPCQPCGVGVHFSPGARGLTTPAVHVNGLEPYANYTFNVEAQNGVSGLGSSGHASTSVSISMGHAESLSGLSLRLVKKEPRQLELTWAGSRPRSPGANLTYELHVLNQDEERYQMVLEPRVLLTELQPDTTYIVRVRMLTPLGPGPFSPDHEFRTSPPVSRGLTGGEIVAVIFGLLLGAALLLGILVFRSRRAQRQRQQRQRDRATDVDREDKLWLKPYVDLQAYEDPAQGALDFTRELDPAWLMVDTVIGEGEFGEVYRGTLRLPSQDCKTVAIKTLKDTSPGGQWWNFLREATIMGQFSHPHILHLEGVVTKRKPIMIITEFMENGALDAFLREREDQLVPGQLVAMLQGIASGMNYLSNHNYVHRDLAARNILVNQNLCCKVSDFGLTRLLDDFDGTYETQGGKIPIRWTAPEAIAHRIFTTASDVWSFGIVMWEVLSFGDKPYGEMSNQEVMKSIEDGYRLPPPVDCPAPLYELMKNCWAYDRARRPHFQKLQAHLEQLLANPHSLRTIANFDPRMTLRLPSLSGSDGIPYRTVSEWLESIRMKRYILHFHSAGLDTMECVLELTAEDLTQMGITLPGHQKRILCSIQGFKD
Procedure: (§1) To detect the binding specificity of scFv, 293T cells were transformed with EphA1-A8 plasmids individually for overexpression of different EphA molecules. The cell line was freshly prepared and washed with FACS buffer (2% FBS in PBS). The cells were seeded at 1×10⁵ cells/well into a 96-well Ubottom plate and incubated with scFv for 1 h at 4° C. After the plate was washed with FACS buffer, the anti-hemagglutinin (HA) antibody was added for scFv binding detection (scFv was fused with a HA tag) and subsequently developed using an FITC-conjugated secondary antibody. Finally, the cell binding signal was analyzed using a FACS can flow cytometer.

[2] = target: T2, EphA6 overexpressed on 293T cells (UniProt Q9UF33 23-1036, limits assumed); assay: as above
T2 construct: whole, on cells
T2 sequence (looked up): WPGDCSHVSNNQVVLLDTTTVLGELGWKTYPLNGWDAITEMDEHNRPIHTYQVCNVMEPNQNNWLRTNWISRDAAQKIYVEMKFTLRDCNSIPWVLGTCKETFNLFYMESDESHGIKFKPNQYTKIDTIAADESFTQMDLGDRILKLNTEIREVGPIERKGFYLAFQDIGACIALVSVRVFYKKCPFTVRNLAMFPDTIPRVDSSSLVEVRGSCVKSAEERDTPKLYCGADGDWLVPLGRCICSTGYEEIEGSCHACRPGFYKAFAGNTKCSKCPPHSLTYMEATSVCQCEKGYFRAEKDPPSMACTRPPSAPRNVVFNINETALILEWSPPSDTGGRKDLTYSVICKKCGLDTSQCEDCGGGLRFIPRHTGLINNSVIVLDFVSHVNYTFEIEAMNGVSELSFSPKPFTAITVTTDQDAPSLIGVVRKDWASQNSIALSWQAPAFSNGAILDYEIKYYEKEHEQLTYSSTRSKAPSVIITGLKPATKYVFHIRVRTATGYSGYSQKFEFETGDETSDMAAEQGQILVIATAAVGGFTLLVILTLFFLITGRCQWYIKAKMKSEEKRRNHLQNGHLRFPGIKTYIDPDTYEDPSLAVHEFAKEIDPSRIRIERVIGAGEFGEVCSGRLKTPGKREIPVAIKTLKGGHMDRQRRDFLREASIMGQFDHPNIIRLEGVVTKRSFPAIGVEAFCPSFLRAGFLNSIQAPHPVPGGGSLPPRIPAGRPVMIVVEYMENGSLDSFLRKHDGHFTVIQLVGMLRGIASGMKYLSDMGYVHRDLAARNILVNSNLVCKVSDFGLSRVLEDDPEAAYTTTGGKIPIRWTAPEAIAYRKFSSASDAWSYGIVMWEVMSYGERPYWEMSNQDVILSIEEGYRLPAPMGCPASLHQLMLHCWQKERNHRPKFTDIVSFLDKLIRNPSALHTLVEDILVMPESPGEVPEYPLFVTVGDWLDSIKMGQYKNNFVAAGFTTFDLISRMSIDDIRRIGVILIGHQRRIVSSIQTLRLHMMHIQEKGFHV
Procedure: as §1

binding result [1]: no binding
binding result [2]: no binding
B1: Humanized scFv hSD5 (scFv)
scFv: LTQPPSVSVSPGQTVRITCSGSSGSYGWYQQKSPGQAPVTLIYDNDKRPSGIPERFSGSSSGSTSTLTISGVQAEDEADYYCGSADSSTYVGMFGGGTKLTVLGQSSRSSQVQLVESGGGLVQPGGSLRLSCAASGFTFSDYGMGWVRQAPGKGLEWVAGISAAGSFTPYGAAVKGRFTISRDNSKNTVYLQMNSLRAEDTAVYYCARIPSGYRAGEIYTWGQGTLVTVSS
notes: also called hSD5 scFv; Humanized scFv hSDS
